The results in this text go back to patent publication US20260000752A1.

The target in the experiment is human IgG (used as a control) (human). In words: ELISA pH 7.4; human IgG control coated, biotinylated FcRn titrated, streptavidin-HRP. In general terms: In an ELISA, binding on a coated surface is turned into a signal by an enzyme label.

In general, EC50 refers to the concentration that produces a half-maximal response. Low readings indicate higher potency in that assay, high ones lower potency in that assay. On to “recombinant human FcRn, biotinylated (R&D Systems) (from UniProt P55899 24-297; P61769 21-119) (receptor)”, for which the concentration giving a half-maximal response (EC50) amounted to 0.0292 µg/mL.
